First the molecules themselves.
B1: Complement factor H-related protein 5 (Homo sapiens), Q9BXR6 (parent)
chain: MLLLFSVILISWVSTVGGEGTLCDFPKIHHGFLYDEEDYNPFSQVPTGEVFYYSCEYNFVSPSKSFWTRITCTEEGWSPTPKCLRMCSFPFVKNGHSESSGLIHLEGDTVQIICNTGYSLQNNEKNISCVERGWSTPPICSFTKGECHVPILEANVDAQPKKESYKVGDVLKFSCRKNLIRVGSDSVQCYQFGWSPNFPTCKGQVRSCGPPPQLSNGEVKEIRKEEYGHNEVVEYDCNPNFIINGPKKIQCVDGEWTTLPTCVEQVKTCGYIPELEYGYVQPSVPPYQHGVSVEVNCRNEYAMIGNNMITCINGIWTELPMCVATHQLKRCKIAGVNIKTLLKLSGKEFNHNSRIRYRCSDIFRYRHSVCINGKWNPEVDCTEKREQFCPPPPQIPNAQNMTTTVNYQDGEKVAVLCKENYLLPEAKEIVCKDGRWQSLPRCVESTAYCGPPPSINNGDTTSFPLSVYPPGSTVTYRCQSFYKLQGSVTVTCRNKQWSEPPRCLDPCVVSEENMNKNNIQLKWRNDGKLYAKTGDAVEFQCKFPHKAMISSPPFRAICQEGKFEYPICE
partner: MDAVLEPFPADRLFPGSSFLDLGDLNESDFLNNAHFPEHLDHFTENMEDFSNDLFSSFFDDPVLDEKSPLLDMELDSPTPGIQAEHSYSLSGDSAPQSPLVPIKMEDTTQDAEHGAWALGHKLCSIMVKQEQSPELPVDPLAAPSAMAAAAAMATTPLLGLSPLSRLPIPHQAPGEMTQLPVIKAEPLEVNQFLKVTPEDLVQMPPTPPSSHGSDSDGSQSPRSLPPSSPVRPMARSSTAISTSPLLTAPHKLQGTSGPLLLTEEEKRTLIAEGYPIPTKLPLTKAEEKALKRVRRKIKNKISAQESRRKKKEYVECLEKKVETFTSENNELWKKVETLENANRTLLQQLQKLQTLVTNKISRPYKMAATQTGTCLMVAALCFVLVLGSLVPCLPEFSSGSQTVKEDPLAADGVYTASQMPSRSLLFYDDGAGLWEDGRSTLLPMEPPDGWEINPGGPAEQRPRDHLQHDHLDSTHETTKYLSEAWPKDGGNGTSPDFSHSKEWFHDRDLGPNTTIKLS
B2: Polyunsaturated fatty acid 5-lipoxygenase (Homo sapiens), P09917 (parent)
chain: MPSYTVTVATGSQWFAGTDDYIYLSLVGSAGCSEKHLLDKPFYNDFERGAVDSYDVTVDEELGEIQLVRIEKRKYWLNDDWYLKYITLKTPHGDYIEFPCYRWITGDVEVVLRDGRAKLARDDQIHILKQHRRKELETRQKQYRWMEWNPGFPLSIDAKCHKDLPRDIQFDSEKGVDFVLNYSKAMENLFINRFMHMFQSSWNDFADFEKIFVKISNTISERVMNHWQEDLMFGYQFLNGCNPVLIRRCTELPEKLPVTTEMVECSLERQLSLEQEVQQGNIFIVDFELLDGIDANKTDPCTLQFLAAPICLLYKNLANKIVPIAIQLNQIPGDENPIFLPSDAKYDWLLAKIWVRSSDFHVHQTITHLLRTHLVSEVFGIAMYRQLPAVHPIFKLLVAHVRFTIAINTKAREQLICECGLFDKANATGGGGHVQMVQRAMKDLTYASLCFPEAIKARGMESKEDIPYYFYRDDGLLVWEAIRTFTAEVVDIYYEGDQVVEEDPELQDFVNDVYVYGMRGRKSSGFPKSVKSREQLSEYLTVVIFTASAQHAAVNFGQYDWCSWIPNAPPTMRAPPPTAKGVVTIEQIVDTLPDRGRSCWHLGAVWALSQFQENELFLGMYPEEHFIEKPVKEAMARFRKNLEAIVSVIAERNKKKQLPYYYLSPDRIPNSVAI
partner: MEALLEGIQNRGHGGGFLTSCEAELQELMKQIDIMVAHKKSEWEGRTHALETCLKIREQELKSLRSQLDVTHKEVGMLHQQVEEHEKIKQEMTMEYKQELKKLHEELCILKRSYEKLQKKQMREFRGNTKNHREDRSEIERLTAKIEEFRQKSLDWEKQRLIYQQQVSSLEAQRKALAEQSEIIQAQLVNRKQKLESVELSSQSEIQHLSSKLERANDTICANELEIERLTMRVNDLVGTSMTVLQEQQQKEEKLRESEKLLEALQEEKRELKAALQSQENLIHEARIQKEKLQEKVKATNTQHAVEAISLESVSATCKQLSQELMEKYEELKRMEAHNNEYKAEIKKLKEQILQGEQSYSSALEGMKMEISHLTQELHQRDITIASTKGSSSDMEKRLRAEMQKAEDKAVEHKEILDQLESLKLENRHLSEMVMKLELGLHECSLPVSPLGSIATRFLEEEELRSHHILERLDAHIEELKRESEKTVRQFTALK
B3: Inactive peptidyl-prolyl cis-trans isomerase FKBP6 (Homo sapiens), O75344 (parent)
chain: MGGSALNQGVLEGDDAPGQSLYERLSQRMLDISGDRGVLKDVIREGAGDLVAPDASVLVKYSGYLEHMDRPFDSNYFRKTPRLMKLGEDITLWGMELGLLSMRRGELARFLFKPNYAYGTLGCPPLIPPNTTVLFEIELLDFLDCAESDKFCALSAEQQDQFPLQKVLKVAATEREFGNYLFRQNRFYDAKVRYKRALLLLRRRSAPPEEQHLVEAAKLPVLLNLSFTYLKLDRPTIALCYGEQALIIDQKNAKALFRCGQACLLLTEYQKARDFLVRAQKEQPFNHDINNELKKLASCYRDYVDKEKEMWHRMFAPCGDGSTAGES
partner: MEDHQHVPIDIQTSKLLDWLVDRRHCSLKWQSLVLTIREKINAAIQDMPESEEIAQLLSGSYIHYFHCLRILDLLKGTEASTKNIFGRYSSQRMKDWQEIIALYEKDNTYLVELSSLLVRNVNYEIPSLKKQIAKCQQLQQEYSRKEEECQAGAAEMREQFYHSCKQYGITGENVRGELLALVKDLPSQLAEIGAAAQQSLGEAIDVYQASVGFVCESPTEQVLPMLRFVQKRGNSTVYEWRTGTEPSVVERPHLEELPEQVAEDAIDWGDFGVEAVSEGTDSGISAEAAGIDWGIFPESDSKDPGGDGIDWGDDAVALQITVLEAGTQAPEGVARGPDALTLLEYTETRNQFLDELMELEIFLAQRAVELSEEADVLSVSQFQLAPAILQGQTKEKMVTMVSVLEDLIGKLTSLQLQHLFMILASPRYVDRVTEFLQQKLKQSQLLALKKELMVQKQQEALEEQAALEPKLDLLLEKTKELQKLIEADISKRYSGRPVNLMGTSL
B4: PiggyBac transposable element-derived protein 1 (Homo sapiens), Q96JS3 (parent)
chain: MYEALPGPAPENEDGLVKVKEEDPTWEQVCNSQEGSSHTQEICRLRFRHFCYQEAHGPQEALAQLRELCHQWLRPEMHTKEQIMELLVLEQFLTILPKELQPCVKTYPLESGEEAVTVLENLETGSGDTGQQASVYIQGQDMHPMVAEYQGVSLECQSLQLLPGITTLKCEPPQRPQGNPQEVSGPVPHGSAHLQEKNPRDKAVVPVFNPVRSQTLVKTEEETAQAVAAEKWSHLSLTRRNLCGNSAQETVMSLSPMTEEIVTKDRLFKAKQETSEEMEQSGEASGKPNRECAPQIPCSTPIATERTVAHLNTLKDRHPGDLWARMHISSLEYAAGDITRKGRKKDKARVSELLQGLSFSGDSDVEKDNEPEIQPAQKKLKVSCFPEKSWTKRDIKPNFPSWSALDSGLLNLKSEKLNPVELFELFFDDETFNLIVNETNNYASQKNVSLEVTVQEMRCVFGVLLLSGFMRHPRREMYWEVSDTDQNLVRDAIRRDRFELIFSNLHFADNGHLDQKDKFTKLRPLIKQMNKNFLLYAPLEEYYCFDKSMCECFDSDQFLNGKPIRIGYKIWCGTTTQGYLVWFEPYQEESTMKVDEDPDLGLGGNLVMNFADVLLERGQYPYHLCFDSFFTSVKLLSALKKKGVRATGTIRENRTEKCPLMNVEHMKKMKRGYFDFRIEENNEIILCRWYGDGIISLCSNAVGIEPVNEVSCCDADNEEIPQISQPSIVKVYDECKEGVAKMDQIISKYRVRIRSKKWYSILVSYMIDVAMNNAWQLHRACNPGASLDPLDFRRFVAHFYLEHNAHLSD
partner: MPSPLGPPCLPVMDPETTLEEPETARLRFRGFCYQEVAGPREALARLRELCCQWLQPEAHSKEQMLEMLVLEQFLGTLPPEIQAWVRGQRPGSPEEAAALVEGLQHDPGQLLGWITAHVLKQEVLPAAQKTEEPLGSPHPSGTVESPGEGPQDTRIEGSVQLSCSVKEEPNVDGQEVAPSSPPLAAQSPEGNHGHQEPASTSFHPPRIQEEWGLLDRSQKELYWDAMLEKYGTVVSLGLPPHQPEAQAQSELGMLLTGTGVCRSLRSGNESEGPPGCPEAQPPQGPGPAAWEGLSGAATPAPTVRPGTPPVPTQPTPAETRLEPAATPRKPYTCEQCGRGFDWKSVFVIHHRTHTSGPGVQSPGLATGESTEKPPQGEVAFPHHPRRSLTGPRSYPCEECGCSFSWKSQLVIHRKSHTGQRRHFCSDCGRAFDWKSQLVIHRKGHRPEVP

The variants in the first assay derive from B1. As to conditions: with cr3l1_human CREB3L1, Q96BA8.
Regarding F192L, the “effect of a mutation on the interaction” value was “with no effect”. Consider M514R, for which the “effect of a mutation on the interaction” value was “with no effect”. With P46S, the “effect of a mutation on the interaction” value was “with no effect”.

The variants in a further assay derive from B2. Conditions: with CEP63, Q96MT8-3.
Regarding E254K, the “effect of a mutation on the interaction” value is reported as “with no effect”.

In the next assay the parent is B3. Conditions: with ck5p3_human CDK5RAP3, Q96JB5.
As for F72L, the “effect of a mutation on the interaction” value is “disrupting interaction strength”. On the same count and under the same terms, in the case of R202H it was “with no effect”.

A further assay covers variants of B4. Conditions: with zn446_human ZNF446, Q9NWS9.
With P256L, the “effect of a mutation on the interaction” value was “with no effect”. As to Q248E, the “effect of a mutation on the interaction” value is “with no effect”. Still for that read-out and setting: under G244E stands “with no effect”. H806D: the “effect of a mutation on the interaction” value is “with no effect”.
